Here are results for two molecules from publication PMC4587339 (Journal of molecular biology, 2015).

Values joined by “and” are separate entries in the source; they are usually repeats but may differ in a detail not shown here. Equal values may be shown once.

Test [1] concerns the target T1, full length L-terminase of bacteriophage P22, purified alone for the pull-down (bacteriophage P22, UniProt P26745 1-499).
T1 sequence (looked up): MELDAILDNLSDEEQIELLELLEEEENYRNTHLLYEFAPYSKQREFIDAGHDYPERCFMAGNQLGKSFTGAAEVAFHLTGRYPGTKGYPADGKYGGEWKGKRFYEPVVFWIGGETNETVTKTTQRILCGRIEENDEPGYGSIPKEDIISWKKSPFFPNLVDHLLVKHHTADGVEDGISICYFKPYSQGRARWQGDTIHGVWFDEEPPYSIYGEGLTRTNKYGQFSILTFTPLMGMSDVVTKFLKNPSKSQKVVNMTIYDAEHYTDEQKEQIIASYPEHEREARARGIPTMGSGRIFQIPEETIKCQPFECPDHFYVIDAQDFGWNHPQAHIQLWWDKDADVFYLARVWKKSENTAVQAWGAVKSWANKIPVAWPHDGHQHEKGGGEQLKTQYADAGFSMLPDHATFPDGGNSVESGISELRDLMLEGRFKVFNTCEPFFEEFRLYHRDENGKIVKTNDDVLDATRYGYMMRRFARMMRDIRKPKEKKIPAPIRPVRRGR
As to the kind of experiment: pull-down.

Test [2] deals with T2, L-terminase ATPase domain of bacteriophage P22 (residues 1-287) (bacteriophage P22, UniProt P26745 1-287).
T2 sequence (looked up): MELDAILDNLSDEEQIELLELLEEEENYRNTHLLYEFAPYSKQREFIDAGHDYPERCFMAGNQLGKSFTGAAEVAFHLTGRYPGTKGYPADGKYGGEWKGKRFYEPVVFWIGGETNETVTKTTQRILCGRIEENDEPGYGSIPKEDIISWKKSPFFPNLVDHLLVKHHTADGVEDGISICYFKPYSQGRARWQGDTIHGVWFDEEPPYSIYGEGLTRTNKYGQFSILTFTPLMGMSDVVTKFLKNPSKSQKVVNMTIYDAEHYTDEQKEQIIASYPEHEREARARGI
The test can be described thus: pull-down.

For test [3], the target named is T3, S-terminase (small terminase subunit) of bacteriophage P22, full length, MBP cleaved off (bacteriophage P22, UniProt P04893 1-162).
T3 sequence (looked up): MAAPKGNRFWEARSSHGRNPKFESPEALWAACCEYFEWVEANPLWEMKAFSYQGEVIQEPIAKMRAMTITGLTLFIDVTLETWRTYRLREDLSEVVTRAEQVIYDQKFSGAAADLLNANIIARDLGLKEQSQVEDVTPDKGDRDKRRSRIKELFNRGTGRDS
As to the kind of experiment: native MS.

Test [4] concerns the target T4, MBP-tagged L-terminase Binding Domain of P22 S-terminase (residues 140-162) (bacteriophage P22, UniProt P04893 140-162).
T4 chain (looked up): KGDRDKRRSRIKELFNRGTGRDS
The test can be described thus: AUC.

Regarding KGDRDKRRSRIKELFNRGTGRDS (domain or fragment, bacteriophage P22, UniProt P04893 140-162, looked up) [GST-tagged L-terminase Binding Domain of P22 S-terminase (residues 140-162)], the binding result in test [1] and in test [2] was “binds” throughout.

B1: L-terminase (large terminase subunit) of bacteriophage P22, full length, co-expressed (enzyme, UniProt P26745 1-499, looked up)
chain: MELDAILDNLSDEEQIELLELLEEEENYRNTHLLYEFAPYSKQREFIDAGHDYPERCFMAGNQLGKSFTGAAEVAFHLTGRYPGTKGYPADGKYGGEWKGKRFYEPVVFWIGGETNETVTKTTQRILCGRIEENDEPGYGSIPKEDIISWKKSPFFPNLVDHLLVKHHTADGVEDGISICYFKPYSQGRARWQGDTIHGVWFDEEPPYSIYGEGLTRTNKYGQFSILTFTPLMGMSDVVTKFLKNPSKSQKVVNMTIYDAEHYTDEQKEQIIASYPEHEREARARGIPTMGSGRIFQIPEETIKCQPFECPDHFYVIDAQDFGWNHPQAHIQLWWDKDADVFYLARVWKKSENTAVQAWGAVKSWANKIPVAWPHDGHQHEKGGGEQLKTQYADAGFSMLPDHATFPDGGNSVESGISELRDLMLEGRFKVFNTCEPFFEEFRLYHRDENGKIVKTNDDVLDATRYGYMMRRFARMMRDIRKPKEKKIPAPIRPVRRGR
The stoichiometry N is the number of molecules, sites or subunits per partner or assembly. For B1, the “stoichiometry N” value in test [3] is 1 L-terminase per S-terminase nonamer and 2 L-terminase per S-terminase nonamer and 3 L-terminase per S-terminase nonamer; in test [4] it was 1 L-terminase per MBP-LBD.
